The results in this text go back to patent US20190038707A1.

The target in test [1] is HCN channels (mediating Ih) in CA1 pyramidal neurons of TRIP8b KO mice. Kind of test: cell-based or functional assay.
For test [2], the target named is HCN1, hyperpolarization-activated cyclic nucleotide-gated channel pore-forming subunit 1, endogenous in CA1 pyramidal neurons of TRIP8b KO mice (mouse) (UniProt O88704). Description: cell-based or functional assay.
Sequence of UniProt O88704 (O88704 whole entry): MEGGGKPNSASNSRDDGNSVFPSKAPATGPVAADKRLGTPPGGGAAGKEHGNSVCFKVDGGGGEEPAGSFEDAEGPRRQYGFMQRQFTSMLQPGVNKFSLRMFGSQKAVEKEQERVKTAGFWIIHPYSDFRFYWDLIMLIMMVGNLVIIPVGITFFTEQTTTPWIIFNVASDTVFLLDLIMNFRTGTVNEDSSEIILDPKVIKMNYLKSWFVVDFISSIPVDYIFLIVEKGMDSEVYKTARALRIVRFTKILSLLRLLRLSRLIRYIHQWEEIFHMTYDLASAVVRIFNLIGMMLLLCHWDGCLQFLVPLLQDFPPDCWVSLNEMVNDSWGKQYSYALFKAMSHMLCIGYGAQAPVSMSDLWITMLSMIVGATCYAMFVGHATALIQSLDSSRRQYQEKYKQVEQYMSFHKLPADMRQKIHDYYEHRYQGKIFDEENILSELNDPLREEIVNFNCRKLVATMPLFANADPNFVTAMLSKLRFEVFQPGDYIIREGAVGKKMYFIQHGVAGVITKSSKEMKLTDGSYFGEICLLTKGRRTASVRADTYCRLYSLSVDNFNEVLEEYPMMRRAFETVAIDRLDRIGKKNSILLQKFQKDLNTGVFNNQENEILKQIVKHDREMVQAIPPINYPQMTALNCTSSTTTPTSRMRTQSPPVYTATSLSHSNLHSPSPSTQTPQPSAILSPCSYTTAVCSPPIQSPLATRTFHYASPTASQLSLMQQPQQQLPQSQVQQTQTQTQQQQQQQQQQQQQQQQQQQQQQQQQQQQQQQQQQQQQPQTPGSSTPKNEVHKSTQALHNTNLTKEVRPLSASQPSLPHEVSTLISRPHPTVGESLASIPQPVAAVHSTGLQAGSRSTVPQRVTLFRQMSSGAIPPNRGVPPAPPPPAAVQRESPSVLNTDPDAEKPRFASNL

“TRIP8b(1a-4)(TPR3-N13A), expressed from AAV-TRIP8b(N13A)”: in test [1], the Ih amplitude, voltage clamp, TRIP8b KO mice stood at 0.282 pA/pF and the sag ratio, somatic whole cell recordings, TRIP8b KO mice was 1.11. Also, the HCN1 staining in the SLM layer of CA1, injected hemisphere scaled by contralateral hemisphere (immunohistochemistry) (fold of uninjected hemisphere) in test [2] turned out to be 0.78.

As for “TRIP8b(Δ58/N13A) double mutant, expressed from AAV-TRIP8b(Δ58/N13A)”, the HCN1 staining in the SLM layer of CA1, injected hemisphere scaled by contralateral hemisphere (immunohistochemistry) (fold of uninjected hemisphere) in test [2] came out at 0.99.

Regarding “TRIP8b(1a-4), tetratricopeptide repeat-containing Rab8b interacting protein, isoform comprised of exons 1a, 4 and 5-16, wild type, expressed from AAV-TRIP8b-IRES-eGFP”, in test [1], the Ih amplitude, somatic voltage clamp recordings, TRIP8b KO mice was 0.68 pA/pF and the sag ratio (ΔVmax/ΔVsteady-state), whole cell recordings from eGFP positive CA1 pyramidal neurons of TRIP8b KO mice was determined as 1.27. Also, the HCN1 staining in the SLM of CA1, injected hemisphere relative to uninjected hemisphere (immunohistochemistry) (fold of uninjected hemisphere) in test [2] came to 1.52.

“TRIP8b(1a-4)(Δ58), expressed from AAV-TRIP8b(Δ58)”: in test [1], the Ih amplitude, voltage clamp, TRIP8b KO mice worked out at 0.27 pA/pF and the sag ratio, somatic whole cell recordings, TRIP8b KO mice came to 1.09. Further, in test [2], the HCN1 staining in the SLM layer of CA1, injected hemisphere scaled by contralateral hemisphere (immunohistochemistry) (fold of uninjected hemisphere) came to 0.98.
